The results in this text go back to the supplement of paper PMC6755084.

B1: F1*; the commonest letter at each place (parent)
chain: GAGACCGCAACTGAAAAGTTGTTATCACTTGTCGTAAGACACTTTGGATGGGTTGAAGTTCTGCACGTAGAAGCAAAAGGC

In the data set the parent is B1. The data set can be described thus: fraction ligated after 30 min (ligated reads / total reads); higher = more ligase activity. The note with it: with F1*sub RNA substrate (template-directed ligation), 42 °C. The gist of the method: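 Oligo-pool templates of ligase ribozyme variants were PCR-amplified, T7-transcribed and gel-purified. Ligated and unligated bands were gel-separated, reverse transcribed with barcoded primers, and MiSeq-sequenced; core bases were filtered at quality ≥20. Fraction ligated per variant was ligated reads over total reads.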
On to GAGACCGCAACTGAAAAGTTGTTATCCCTTGTCGAAAGACACTTTGGATGGGTTGAAGTTCTGCACGTAGAAGCAAAAGGC [A27C T35A], for which the fraction ligated turned out to be 0.835. Turning to GAGACCGCAACTGAAAAGTTGTTATCCCTTGTCGGAAGACACTTTGGATGGGTTGAAGTTCTGCACGTAGAAGCAAAAGGC [A27C T35G], the fraction ligated came out at 0.82. GAGACCGCAACTGAAAAGTTGTTATCCCTTGTCGCAAGACACTTTGGATGGGTTGAAGTTCTGCACGTAGAAGCAAAAGGC [A27C T35C]: the fraction ligated was found to be 0.813.

In the case of GAGACCGCAACTGAAAAGTTGTTATCCCTTGTCGTAAGACACTTTGGATGGGTTGACGTTCTGCACGTAGAAGCAAAAGGC [A27C A57C], the fraction ligated was determined as 0.787. The value for GAGACCGCAACTGAAAAGTTGTTATCCCTTGTCGTAAGACACTTTGGATGGGTTGATGTTCTGCACGTAGAAGCAAAAGGC [A27C A57T] was 0.807; that for GAGACCGCAACTGAAAAGTTGTTATCCCTTGTCGTAAGACACTTTGGATGGGTTGAGGTTCTGCACGTAGAAGCAAAAGGC [A27C A57G] was 0.773; that for GAGACCGCAACTGAAAAGTTGTTATCCCTTGTCGTAAGTCACTTTGGATGGGTTGAAGTTCTGCACGTAGAAGCAAAAGGC [A27C A39T] was 0.789.

As for GAGACCGCAACTGAAAAGTTGTTATCCCTTGTCGTAAGACACTCTGGATGGGTTGAAGTTCTGCACGTAGAAGCAAAAGGC [A27C T44C], the fraction ligated was determined as 0.788. Next, GAGACCGCAACTGAAAAGTTGTTATCCCTTGTCGTAAGACACTGTGGATGGGTTGAAGTTCTGCACGTAGAAGCAAAAGGC [A27C T44G]: 0.798. On to GAGACCGCAACTGAAAAGTTGTTATCCCTTGTCGTAAGACACTATGGATGGGTTGAAGTTCTGCACGTAGAAGCAAAAGGC [A27C T44A], for which the fraction ligated was 0.79.

Consider GAGACCGCAACTGAAAAGTTGTTATCCCTTTTCGTAAGACACTTTGGATGGGTTGAAGTTCTGCACGTAGAAGCAAAAGGC [A27C G31T], for which the fraction ligated is 0.789. With GAGACCGCAACTGAAAAGTTGTTATCCCTTCTCGTAAGACACTTTGGATGGGTTGAAGTTCTGCACGTAGAAGCAAAAGGC [A27C G31C], the fraction ligated amounted to 0.835. In the case of GAGACCGCAACTGAAAAGTTGTTATCCCTTATCGTAAGACACTTTGGATGGGTTGAAGTTCTGCACGTAGAAGCAAAAGGC [A27C G31A], the fraction ligated was 0.824. Turning to GAGACCGCAACTGAAAAGTTGTTATCCCTTGTCGTAAGACATTTTGGATGGGTTGAAGTTCTGCACGTAGAAGCAAAAGGC [A27C C42T], the fraction ligated came to 0.816. On to GAGACCGCAACTGAAAAGTTGTTATCCCTTGTCGTAAGACAATTTGGATGGGTTGAAGTTCTGCACGTAGAAGCAAAAGGC [A27C C42A], for which the fraction ligated is 0.818. In the case of GAGACCGCAACTGAAAAGTTGTTATCCCTTGTCGTAAGACAGTTTGGATGGGTTGAAGTTCTGCACGTAGAAGCAAAAGGC [A27C C42G], the fraction ligated is 0.831. With GAGACCGCAACTGAAAAGTTGTTATCCCTCGTCGTAAGACACTTTGGATGGGTTGAAGTTCTGCACGTAGAAGCAAAAGGC [A27C T30C], the fraction ligated came out at 0.774. Next, GAGACCGCAACTGAAAAGTTGTTATCCCTAGTCGTAAGACACTTTGGATGGGTTGAAGTTCTGCACGTAGAAGCAAAAGGC [A27C T30A]: 0.783. For the variant GAGACCGCAACTGAAAAGTTGTTATCCCTGGTCGTAAGACACTTTGGATGGGTTGAAGTTCTGCACGTAGAAGCAAAAGGC [A27C T30G], the fraction ligated is 0.825. With GAGACCGCAACTGAAAAGTTGTTATCCCATGTCGTAAGACACTTTGGATGGGTTGAAGTTCTGCACGTAGAAGCAAAAGGC [A27C T29A], the fraction ligated came to 0.818. GAGACCGCAACTGAAAAGTTGTTATCCCGTGTCGTAAGACACTTTGGATGGGTTGAAGTTCTGCACGTAGAAGCAAAAGGC [A27C T29G]: the fraction ligated was 0.797. Take GAGACCGCAACTGAAAAGTTGTTATCCCCTGTCGTAAGACACTTTGGATGGGTTGAAGTTCTGCACGTAGAAGCAAAAGGC [A27C T29C]: the fraction ligated is 0.802.

With GAGACCGCAACTGAAAAGTTGTTATCCCTTGTCGTAAGACACTTTGGCTGGGTTGAAGTTCTGCACGTAGAAGCAAAAGGC [A27C A48C], the fraction ligated is 0.748. Take GAGACCGCAACTGAAAAGTTGTTATCCCTTGTCGTAAGACACTTTGGGTGGGTTGAAGTTCTGCACGTAGAAGCAAAAGGC [A27C A48G]: the fraction ligated amounted to 0.256. On to GAGACCGCAACTGAAAAGTTGTTATCCCTTGTCGTAAGACACTTTGGTTGGGTTGAAGTTCTGCACGTAGAAGCAAAAGGC [A27C A48T], for which the fraction ligated stood at 0.78. Turning to GAGACCGCAACTGAAAAGTTGTTATCCCTTGTCGTAAGACACTTTTGATGGGTTGAAGTTCTGCACGTAGAAGCAAAAGGC [A27C G46T], the fraction ligated is 0.78. As to GAGACCGCAACTGAAAAGTTGTTATCCCTTGTCGTAAGACACTTTCGATGGGTTGAAGTTCTGCACGTAGAAGCAAAAGGC [A27C G46C], the fraction ligated was determined as 0.782.

For the variant GAGACCGCAACTGAAAAGTTGTTATCCCTTGTCGTAAGACACTTTAGATGGGTTGAAGTTCTGCACGTAGAAGCAAAAGGC [A27C G46A], the fraction ligated stood at 0.82. For the variant GAGACCGCAACTGAAAAGTTGTTATCCCTTGTCGTAAGACCCTTTGGATGGGTTGAAGTTCTGCACGTAGAAGCAAAAGGC [A27C A41C], the fraction ligated came out at 0.782. As for GAGACCGCAACTGAAAAGTTGTTATCCCTTGTCGTAAGACGCTTTGGATGGGTTGAAGTTCTGCACGTAGAAGCAAAAGGC [A27C A41G], the fraction ligated amounted to 0.781. As to GAGACCGCAACTGAAAAGTTGTTATCCCTTGTCGTAAGACTCTTTGGATGGGTTGAAGTTCTGCACGTAGAAGCAAAAGGC [A27C A41T], the fraction ligated turned out to be 0.785. As for GAGACCGCAACTGAAAAGTTGTTATCCCTTGTCGTAAGACACTTTGGATGGGTTGTAGTTCTGCACGTAGAAGCAAAAGGC [A27C A56T], the fraction ligated stood at 0.787. GAGACCGCAACTGAAAAGTTGTTATCCCTTGTCGTAAGACACTTTGGATGGGTTGCAGTTCTGCACGTAGAAGCAAAAGGC [A27C A56C]: the fraction ligated stood at 0.75. Turning to GAGACCGCAACTGAAAAGTTGTTATCCCTTGTCGTAAGACACTTTGGATGGGTTGGAGTTCTGCACGTAGAAGCAAAAGGC [A27C A56G], the fraction ligated stood at 0.742.
